Experimental data from paper PMC10003648, “Polymer-Degrading Enzymes of Pseudomonas chloroaphis PA23 Display Broad Substrate Preferences” (International Journal of Molecular Sciences, 2023).

Tested on: CCCCCCCC(=O)Oc1ccc([N+](=O)[O-])cc1
Assay: purified protein
Format: biochemical, Pseudomonas chlororaphis
Conditions: optimal assay conditions (optimum pH 6.0, 50 °C), 0.1-3.0 mmol/L substrate

Q: LIP4 (Pseudomonas chlororaphis) was tested. Which Km did it give?
A: 333 µM
